In article PMC9482650, “Quantitative fragmentomics allow affinity mapping of interactomes” (Nature Communications, 2022):
One block for each binder: values may come before it.

Tests used:
Experiment in all cases: holdup assay
Set-up in all cases: key: below the threshold = too weak to quantify, mostly under pKd 3.1 to 4
Details in all cases: plain residues with an end cap or a label only (N-terminal biotin on a linker: ado-ado)
GRIP2_7, Q9C0E4 = molecular target: GRIP2_7, Q9C0E4
NHERF3_4, Q5T2W1 = molecular target: T1, NHERF3_4, Q5T2W1
T1 sequence (Q5T2W1 373-468, limits assumed, looked up): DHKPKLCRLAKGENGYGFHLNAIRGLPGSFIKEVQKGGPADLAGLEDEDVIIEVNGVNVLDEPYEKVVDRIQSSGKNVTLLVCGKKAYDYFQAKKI

DVL3, Q92997 = molecular target: T2, DVL3, Q92997
T2 sequence (Q92997 244-331, limits assumed, looked up): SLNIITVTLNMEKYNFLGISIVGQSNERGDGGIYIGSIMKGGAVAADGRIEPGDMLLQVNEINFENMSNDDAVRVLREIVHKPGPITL

TJP1_3, Q07157 = molecular target: TJP1_3, Q07157
DLG2_2, Q15700 = molecular target: DLG2_2, Q15700
APBA1_2, Q02410 = molecular target: T3, APBA1_2, Q02410
T3 sequence (Q02410 742-832, limits assumed, looked up): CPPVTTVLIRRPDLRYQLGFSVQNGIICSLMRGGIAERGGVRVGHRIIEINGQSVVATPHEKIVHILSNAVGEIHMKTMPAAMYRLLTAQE

DFNB31_3, Q9P202 = molecular target: T4, DFNB31_3, Q9P202
T4 sequence (Q9P202 811-907, limits assumed, looked up): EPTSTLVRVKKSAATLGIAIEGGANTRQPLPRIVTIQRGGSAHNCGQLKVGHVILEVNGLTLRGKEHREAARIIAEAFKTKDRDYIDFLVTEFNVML

APBA2_1, Q99767 = molecular target: T5, APBA2_1, Q99767
T5 sequence (Q99767 563-664, limits assumed, looked up): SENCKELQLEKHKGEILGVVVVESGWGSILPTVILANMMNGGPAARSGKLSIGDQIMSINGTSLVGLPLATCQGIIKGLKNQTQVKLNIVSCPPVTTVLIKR

GRIP1_3, Q9Y3R0 = molecular target: T6, GRIP1_3, Q9Y3R0
T6 sequence (Q9Y3R0 247-346, limits assumed, looked up): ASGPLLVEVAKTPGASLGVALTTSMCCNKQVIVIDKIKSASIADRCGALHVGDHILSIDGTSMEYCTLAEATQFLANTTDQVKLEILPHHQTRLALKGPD

GIPC2, Q8TF65 = molecular target: GIPC2, Q8TF65
HTRA3, P83110 = molecular target: T7, HTRA3, P83110
T7 sequence (P83110 354-453, limits assumed, looked up): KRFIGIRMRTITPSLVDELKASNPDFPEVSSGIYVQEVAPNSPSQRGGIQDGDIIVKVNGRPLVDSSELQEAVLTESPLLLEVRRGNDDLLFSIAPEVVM

FRMPD2_3, Q68DX3 = molecular target: FRMPD2_3, Q68DX3
LNX1_1, Q8TBB1 = molecular target: LNX1_1, Q8TBB1
TJP3_3, O95049 = molecular target: T8, TJP3_3, O95049
T8 sequence (O95049 375-456, limits assumed, looked up): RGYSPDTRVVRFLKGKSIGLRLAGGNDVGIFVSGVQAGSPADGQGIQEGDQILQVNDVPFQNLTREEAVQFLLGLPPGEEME

PDZD7_3, Q9H5P4 = molecular target: T9, PDZD7_3, Q9H5P4
T9 sequence (Q9H5P4 857-944, limits assumed, looked up): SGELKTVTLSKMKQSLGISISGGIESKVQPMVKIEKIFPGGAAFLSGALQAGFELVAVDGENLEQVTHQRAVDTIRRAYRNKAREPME

PDZD2_2, O15018 = molecular target: T10, PDZD2_2, O15018
T10 sequence (O15018 329-429, limits assumed, looked up): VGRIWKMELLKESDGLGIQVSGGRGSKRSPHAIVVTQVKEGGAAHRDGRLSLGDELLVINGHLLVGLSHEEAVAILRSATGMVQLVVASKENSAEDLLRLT

LRRC7, Q96NW7 = molecular target: T11, LRRC7, Q96NW7
T11 sequence (Q96NW7 1440-1537, limits assumed, looked up): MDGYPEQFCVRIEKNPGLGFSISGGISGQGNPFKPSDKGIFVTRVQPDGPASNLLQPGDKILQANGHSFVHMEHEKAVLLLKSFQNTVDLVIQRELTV

LNX2_3, Q8N448 = molecular target: T12, LNX2_3, Q8N448
T12 sequence (Q8N448 463-564, limits assumed, looked up): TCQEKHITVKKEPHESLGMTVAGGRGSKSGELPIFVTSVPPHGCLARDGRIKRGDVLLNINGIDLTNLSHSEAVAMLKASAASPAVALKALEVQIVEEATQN

NHERF3_3, Q5T2W1 = molecular target: T13, NHERF3_3, Q5T2W1
T13 sequence (Q5T2W1 238-333, limits assumed, looked up): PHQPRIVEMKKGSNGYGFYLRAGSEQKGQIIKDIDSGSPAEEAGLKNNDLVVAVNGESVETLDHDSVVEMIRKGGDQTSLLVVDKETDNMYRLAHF

APBA3_1, O96018 = molecular target: T14, APBA3_1, O96018
T14 sequence (O96018 389-490, limits assumed, looked up): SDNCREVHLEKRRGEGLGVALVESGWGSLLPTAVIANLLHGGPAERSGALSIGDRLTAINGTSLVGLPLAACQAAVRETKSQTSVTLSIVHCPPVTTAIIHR

MAST1, Q9Y2H9 = molecular target: MAST1, Q9Y2H9
Inadl_5, Q8NI35 = molecular target: Inadl_5, Q8NI35
Inadl_9, Q8NI35 = molecular target: Inadl_9, Q8NI35
IL16_3, Q14005 = molecular target: IL16_3, Q14005
Chain of IL16_3, Q14005 (Q14005 1107-1207): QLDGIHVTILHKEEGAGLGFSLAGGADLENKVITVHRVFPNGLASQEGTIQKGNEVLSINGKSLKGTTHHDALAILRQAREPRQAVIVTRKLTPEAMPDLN

Chain of GIPC2, Q8TF65 (Q8TF65 112-203): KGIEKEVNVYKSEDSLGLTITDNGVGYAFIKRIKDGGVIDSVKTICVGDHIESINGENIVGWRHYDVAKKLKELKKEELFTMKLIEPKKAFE
Chain of LNX1_1, Q8TBB1 (Q8TBB1 261-371): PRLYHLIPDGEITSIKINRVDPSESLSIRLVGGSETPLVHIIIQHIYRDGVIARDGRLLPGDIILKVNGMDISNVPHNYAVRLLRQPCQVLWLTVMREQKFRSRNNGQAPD
Chain of MAST1, Q9Y2H9 (Q9Y2H9 962-1065): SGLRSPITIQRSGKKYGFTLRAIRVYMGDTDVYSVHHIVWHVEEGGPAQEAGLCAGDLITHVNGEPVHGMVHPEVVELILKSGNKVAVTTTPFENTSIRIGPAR
Chain of Inadl_9, Q8NI35 (Q8NI35 1530-1615): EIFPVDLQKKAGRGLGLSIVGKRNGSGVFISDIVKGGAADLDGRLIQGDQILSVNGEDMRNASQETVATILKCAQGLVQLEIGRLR
Chain of TJP1_3, Q07157 (Q07157 416-512): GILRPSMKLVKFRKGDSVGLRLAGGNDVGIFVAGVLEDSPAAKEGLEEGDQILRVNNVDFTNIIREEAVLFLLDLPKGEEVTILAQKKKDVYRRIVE
Chain of GRIP2_7, Q9C0E4 (Q9C0E4 934-1023): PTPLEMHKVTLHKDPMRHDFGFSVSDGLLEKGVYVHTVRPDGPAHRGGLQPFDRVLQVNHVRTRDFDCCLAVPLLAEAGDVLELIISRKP
Chain of Inadl_5, Q8NI35 (Q8NI35 673-780): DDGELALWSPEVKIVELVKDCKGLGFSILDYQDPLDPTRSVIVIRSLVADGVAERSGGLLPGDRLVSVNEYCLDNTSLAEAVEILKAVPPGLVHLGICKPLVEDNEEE
Chain of FRMPD2_3, Q68DX3 (Q68DX3 1073-1166): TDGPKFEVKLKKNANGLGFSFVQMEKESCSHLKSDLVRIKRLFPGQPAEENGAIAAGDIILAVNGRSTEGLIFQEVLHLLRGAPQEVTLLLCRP
Chain of DLG2_2, Q15700 (Q15700 189-283): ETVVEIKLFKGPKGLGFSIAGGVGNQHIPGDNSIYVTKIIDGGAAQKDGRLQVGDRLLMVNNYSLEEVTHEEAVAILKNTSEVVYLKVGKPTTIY

pKd (GRIP2_7, Q9C0E4): 4.04
pKd (NHERF3_4, Q5T2W1): below the threshold
pKd (DVL3, Q92997): 3.79
pKd (TJP1_3, Q07157): 4.67
pKd (DLG2_2, Q15700): 3.62
pKd (APBA1_2, Q02410): 4.73
pKd (DFNB31_3, Q9P202): below the threshold
pKd (APBA2_1, Q99767): below the threshold
pKd (GRIP1_3, Q9Y3R0): below the threshold
pKd (GIPC2, Q8TF65): below the threshold
pKd (HTRA3, P83110): 5.81
pKd (FRMPD2_3, Q68DX3): below the threshold
pKd (LNX1_1, Q8TBB1): below the threshold
pKd (TJP3_3, O95049): 4.63
pKd (PDZD7_3, Q9H5P4): below the threshold
pKd (PDZD2_2, O15018): 5.81
pKd (LRRC7, Q96NW7): 3.81
pKd (LNX2_3, Q8N448): below the threshold
pKd (NHERF3_3, Q5T2W1): below the threshold
pKd (APBA3_1, O96018): below the threshold
pKd (MAST1, Q9Y2H9): below the threshold
pKd (Inadl_5, Q8NI35): 5.11
pKd (Inadl_9, Q8NI35): 3.91
pKd (IL16_3, Q14005): below the threshold
B1: GJD4, Q96KN9 (peptide)
chain: HLRARKSEWV

pKd (GRIP2_7, Q9C0E4): below the threshold
pKd (NHERF3_4, Q5T2W1): 3.73
pKd (DVL3, Q92997): below the threshold
pKd (TJP1_3, Q07157): below the threshold
pKd (DLG2_2, Q15700): 5.21
pKd (APBA1_2, Q02410): 3.49
pKd (DFNB31_3, Q9P202): below the threshold
pKd (APBA2_1, Q99767): below the threshold
pKd (GRIP1_3, Q9Y3R0): below the threshold
pKd (GIPC2, Q8TF65): below the threshold
pKd (HTRA3, P83110): 3.65
pKd (FRMPD2_3, Q68DX3): below the threshold
pKd (LNX1_1, Q8TBB1): 4.34
pKd (TJP3_3, O95049): below the threshold
pKd (PDZD7_3, Q9H5P4): 5.21
pKd (PDZD2_2, O15018): 4.29
pKd (LRRC7, Q96NW7): below the threshold
pKd (LNX2_3, Q8N448): below the threshold
pKd (NHERF3_3, Q5T2W1): below the threshold
pKd (APBA3_1, O96018): below the threshold
pKd (MAST1, Q9Y2H9): 4.28
pKd (Inadl_5, Q8NI35): 4.21
pKd (Inadl_9, Q8NI35): below the threshold
pKd (IL16_3, Q14005): below the threshold
B2: IQSEC2, Q5JU85 (peptide)
chain: AKPSRISTVV

pKd (GRIP2_7, Q9C0E4): below the threshold
pKd (NHERF3_4, Q5T2W1): 4.8
pKd (DVL3, Q92997): below the threshold
pKd (TJP1_3, Q07157): below the threshold
pKd (DLG2_2, Q15700): below the threshold
pKd (APBA1_2, Q02410): below the threshold
pKd (DFNB31_3, Q9P202): 4.03
pKd (APBA2_1, Q99767): below the threshold
pKd (GRIP1_3, Q9Y3R0): below the threshold
pKd (GIPC2, Q8TF65): below the threshold
pKd (HTRA3, P83110): below the threshold
pKd (FRMPD2_3, Q68DX3): below the threshold
pKd (LNX1_1, Q8TBB1): 4.24
pKd (TJP3_3, O95049): below the threshold
pKd (PDZD7_3, Q9H5P4): 4.91
pKd (PDZD2_2, O15018): 4.41
pKd (LRRC7, Q96NW7): below the threshold
pKd (LNX2_3, Q8N448): below the threshold
pKd (NHERF3_3, Q5T2W1): below the threshold
pKd (APBA3_1, O96018): below the threshold
pKd (MAST1, Q9Y2H9): 4.83
pKd (Inadl_5, Q8NI35): below the threshold
pKd (Inadl_9, Q8NI35): below the threshold
pKd (IL16_3, Q14005): below the threshold
B3: ATP2A2, P16615;P16615-3 (peptide)
chain: YLEPVLSSEL
